Entries after “also recorded” stand apart in the source; their conditions may differ.
Tests used:
[1] = Autoradiography after SDS-polyacrylamide gel electrophoresis of [125I]-labeled Aβ preparations; type: physicochemical; conditions: [125I]-labeled 24-h incubated preparations, 16.5% SDS–polyacrylamide gel
Protocol: (§1) One hundred micrograms of either full-length or truncated Aβ species in both monomeric and oligomeric forms were radiolabeled using 1,3,4,6-tetrachloro-3α-6α-diphenylglycoluril pre-coated tubes (Iodogen, ThermoFisher Scientific/Pierce, Waltham, MA) and Na^125I (1 mCi, PerkinElmer, Waltham, MA), following the manufacturer’s specifications. All radiolabeling procedures were carried out for 20 min in a Standalone Radioiodine IH-350 hood (Atlantic Nuclear, Rockland, MA). Following removal of free Iodine using a desalting polyacrylamide column (D-salt, cut off 1.8 kDa, Pierce), radioactivity of labeled Aβ was assessed in a Perkin Elmer 1470 automated gamma counter (Perkin Elmer, Waltham, MA). Under these experimental conditions, [^125I] incorporation rendered specific activities in the range of 3–5 µCi/µg with > 98% TCA precipitable counts. Aggregation status of the [^125I]-labeled Aβ monomeric and oligomeric species was analyzed by autoradiography following 16.5% SDS–polyacrylamide gel electrophoresis and subsequent direct exposure to HyBlot CL film (Denville Scientific Inc., South Plainfield, NJ), as we previously described. If not immediately used for the clearance experiments, [^125I]Aβ oligomeric peptides were stored at -80 °C and used within a week to prevent further oligomerization and minimize radiolysis.

[2] = design: species or system C57BL/6 mice; conditions: mouse, in vivo
Protocol: as §1
C57BL/6 mice (Taconic Biosciences, Hudson, NY) were intracerebrally injected with the different Aβ preparations following institutionally approved IACUC protocols, essentially as previously reported by our laboratory. […] Radioactivity remaining in the whole brain was assessed in the Perkin Elmer 1470 γ-counter.

[3] = after 24-h incubation at 37 °C, 50 μM in 10 mM phosphate buffer pH 7.4, 150 mM NaF; mean of 15 scans
Protocol: Changes in the secondary structure of the different Aβ peptides induced by the oligomerization procedure were estimated by CD spectroscopy, as previously described [66]. The HFIP-pretreated peptides were solubilized in deionized water as above, followed by further dilution to a final concentration of 50 μM in 10 mM phosphate buffer, pH 7.4, containing 150 mM sodium fluoride. Spectra in the far-ultraviolet (wavelength range: 190–260 nm; band-width 1 nm; intervals 1 nm; scan rate 60 nm/min) were recorded for each peptide immediately after solubilization and following 24-h incubation at 37 °C in a Jasco J-720 spectropolarimeter (Jasco Inc., Easton, MD) using a 1-mm-path quartz cell. For each sample, 15 consecutive spectra were obtained and averaged, the baseline reading was subtracted, and results were expressed in terms of molar ellipticity (deg × cm^2/dmol).

[4] = Thioflavin T binding assay; type: physicochemical; conditions: after 24-h incubation at 37 °C under physiological salt concentrations; 50 mM Tris–HCl pH 8.5; ex 435 / em 490 nm; three independent experiments
Protocol: Aggregation of the different Aβ homologues was also monitored by Thioflavin T binding, following previously described protocols. Briefly, 6 μl aliquots from each peptide aggregation time point were added to 184 μl of 50 mM Tris–HCl buffer, pH 8.5, and 10 µl of 0.1 mM thioflavin T (Sigma). Fluorescence was recorded for 300 s in an LS-50B spectrometer (Perkin Elmer, Waltham, MA) with a slit width of 10 nm and excitation and emission wavelengths of 435 and 490 nm, respectively.

[5] = Electron microscopy after negative staining; type: physicochemical; conditions: 24-h incubation/oligomerization
Protocol: All synthetic homologues were incubated at a concentration of 1 mg/ml in 1,1,1,3,3,3,hexafluoro-isopropanol (HFIP; Sigma Chemical Co., St. Louis, MO) for 4 days, a pretreatment that breaks down β-sheet structures and disrupts hydrophobic forces, leading to monodisperse amyloid subunit preparations [67]. The HFIP-pretreated peptides were lyophilized and subsequently reconstituted to 1 mM in 1% NH4OH followed by further dilution in phosphate-buffered saline (PBS) to a final concentration of 50 µM and immediately used for radioiodination and direct intracerebral injection. […] The resulting oligomers were immediately used for radiolabeling and intracerebral injections.
Peptide oligomerization was also monitored by electron microscopy, as previously described [38, 66, 71]. Five microliters of either monomeric or oligomeric preparations of the different Aβ peptides were placed onto carbon-coated 400 mesh Cu/Rh grids (Ted Pella, Inc., Redding, CA) and stained with 1% uranyl acetate in distilled water (Polysciences, Inc., Warrington, PA). The stained grids were examined in a Philips CM-12 transmission electron microscope and photographed with a Gatan (4 k × 2.7 k) digital camera at the Image Core Facility of the Skirball Institute of Biomedical Medicine, NYU School of Medicine, as described [66, 71, 72].

[6] = mouse, in vivo; cited from earlier work
Text: In this sense, it is important to emphasize that the cerebral microvasculature, a main player in the regulation of Aβ homeostasis, suffers ...

Substance | SDS-resistant oligomeric species of 24-h incubated preparations [1] | Brain clearance, percentage cleared relative to the total injected radioactivity, oligomeric (24-h incubated) preparation [2] | Secondary structure by CD upon oligomerization [3] | Thioflavin T binding (fluorescence) of oligomerized peptides [4] | Protofibrillar assemblies after the aggregation procedure, length (electron microscopy) [5] | Percentage cleared from brain, oligomeric form [6] [%]
Aβ1-34: Synthetic homologue of amyloid-β C-terminally truncated at Leu34 | did not oligomerize within the 24-h experimental timeframe | 86% ± 6% | maintained the same unordered conformation before and after | negligible fluorescence signal | did not form protofibrilar elements | –
Aβ1-40: Synthetic homologue of full-length amyloid-β 1-40 | dimeric, trimeric and tetrameric assemblies | – | intermediate mixture of β-sheet and unordered structures | low-to-intermediate thioflavin T binding activity | – | < 40
Aβ1-42: Synthetic homologue of full-length amyloid-β 1-42 | from tetramers to dodecamers | 61% ± 4% | this type of secondary structure became more relevant | highest thioflavin T binding | – | –
Aβ4-40: Synthetic homologue of Aβ1-40 N-terminally truncated at Phe4 | from tetramers to dodecamers | 46% ± 5% | predominant unstructured random conformations | low-to-intermediate thioflavin T binding activity; also recorded: higher thioflavin-binding activity than the full-length counterpart Aβ1-40 | – | –
